*1 amine or outer side, *2 acyl side, *3 side chain or, on linkers, in order; H or OH if unused. Where a SMILES comes first, the peptide text is derived from it. Bridges are numbered along the chain shown (N, C = ends). [ ]: non-standard residue; d: D form. The star is where a group is joined. X1 = N#C[C@@H]1CC(F)(F)CN1C(=O)CNC(=O)c1ccnc2ccc(OCCCN3CCN(*)CC3)cc12; DOTA = O=C(O)CN1CCN(CC(=O)O)CCN(CC(=O)*)CCN(CC(=O)O)CC1; 2Nal = N[C@@H](Cc1ccc2ccccc2c1)C(=O)O; Cit = NC(=O)NCCC[C@H](N)C(=O)O; Suc = O=C(CCC(=O)[*:2])[*:1]; AEEA = NCCOCCOCC(=O)O
Assay: Determination of hydrophilicity/lipophilicity (n-octanol/water distribution coefficient)
Format: physicochemical
Conditions: HEPES buffer pH=7.4 / n-octanol
Experimental: 10 μL of Purified ^68Ga-SDYD01 was diluted to 500 μL with HEPES buffer (pH=7.4), then 500 μL of n-octanol was added. The mixture was vortexed for 30 min and then centrifuged. Subsequently, 450 μL each of the aqueous and organic phases were taken and centrifuged again. Then, 100 μL each of the aqueous and organic phases were taken, and the radioactivity was measured using a γ counter to calculate the n-octanol/water distribution coefficient (Log Do/w). The measured Log Do/w value for ^68Ga-SDYD01 was −2.54±0.01, and for ^177Lu-SDYD01 was −2.55±0.05.
(§1) 10 μL of purified ^68Ga-SDYD02 was diluted to 500 μL with HEPES buffer (pH=7.4), then 500 μL of n-octanol was added. […] Then, 100 μL each of the aqueous and organic phases were taken, and the radioactivity was measured using a γ counter to calculate the n-octanol/water distribution coefficient (Log Do/w). The measured Log Do/w value for ^68Ga-SDYD02 was −2.47±0.03, and for ^177Lu-SDYD02 was −2.35±0.02.
as §1, with “^68Ga-SDYD05” for “^68Ga-SDYD02”, “−2.37±0.02,” for “−2.47±0.03,”, “^177Lu-SDYD05” for “^177Lu-SDYD02”, “−2.46±0.05. […]” for “−2.35±0.02.”

Row | SMILES | n-octanol/water distribution coefficient (Log Do/w)
1 | N#C[C@@H]1CC(F)(F)CN1C(=O)CNC(=O)c1ccnc2ccc(OCCCN3CCN(C(=O)CCC(=O)N[C@@H](CCCCNC(=O)CN4CCN(CC(=O)O)CCN(CC(=O)O)CCN(CC(=O)O)CC4)C(=O)NCCOCCOCC(=O)NCCOCCOCC(=O)N[C@@H](CCCNC(=N)N)C(=O)N[C@@H](CCCNC(=N)N)C(=O)N[C@@H](Cc4ccc5ccccc5c4)C(=O)N[C@H]4CSSC[C@@H](C(=O)N[C@@H](CCCNC(=N)N)C(N)=O)NC(=O)[C@H](CCCNC(N)=O)NC(=O)[C@H](CCCNC(=N)N)NC(=O)[C@H](Cc5ccc(O)cc5)NC(=O)[C@@H]5CCCN5C(=O)[C@H](CCCCN)NC(=O)[C@H](CCCCN)NC(=O)[C@H](CCCNC(N)=O)NC(=O)[C@H](Cc5ccc(O)cc5)NC4=O)CC3)cc12 [^68Ga-SDYD01, metal not drawn] ({X1-Suc}-K(DOTA)[AEEA][AEEA]RR[2Nal]CY[Cit]KKPYR[Cit]CR-NH2; disulfide 7-16) | −2.54±0.01
2 | CCCCCC(=O)N[C@H]1CSCc2cc(CSCCNC(=O)[C@H](CCCCNC(=O)CN3CCN(CC(=O)O)CCN(CC(=O)O)CCN(CC(=O)O)CC3)NC(=O)COCCOCCNC(=O)COCCOCCNC(=O)CCN3C(=O)CC(SCCNC(=O)CCC(=O)NCc4ccc(NC(=O)COCC(=O)N[C@H](Cc5ccccc5)C(=O)N[C@@H](CCC(N)=O)C(=O)N[C@@H](Cc5c[nH]c6ccccc56)C(=O)N[C@@H](C)C(=O)N[C@H](C(=O)NCC(=O)N[C@@H](Cc5c[nH]cn5)C(=O)NC(CC(C)C)CC(C)C)C(C)C)cc4)C3=O)cc(c2)CSC[C@@H](C(=O)O)NC(=O)[C@H](Cc2ccccc2)NC(=O)[C@H](CCC(N)=O)NC(=O)C([C@@H](C)O)NC(=O)[C@@H]2CCCN2C(=O)[C@@H]2CCCN2C1=O (some centres unmarked) [^68Ga-SDYD04, metal not drawn] | −1.63±0.07

Source: patent US20260069728A1, “MULTI-TARGETING COMPOUND AND USE THEREOF” (Chengdu Shetai Medical Technology Co., Ltd., priority 2023, published 2026)
